IntAct's records for PubMed 15252009

B1: Formin-binding protein 1 (Homo sapiens), Q96RU3 (parent)
chain: MSWGTELWDQFDNLEKHTQWGIDILEKYIKFVKERTEIELSYAKQLRNLSKKYQPKKNSKEEEEYKYTSCKAFISNLNEMNDYAGQHEVISENMASQIIVDLARYVQELKQERKSNFHDGRKAQQHIETCWKQLESSKRRFERDCKEADRAQQYFEKMDADINVTKADVEKARQQAQIRHQMAEDSKADYSSILQKFNHEQHEYYHTHIPNIFQKIQEMEERRIVRMGESMKTYAEVDRQVIPIIGKCLDGIVKAAESIDQKNDSQLVIEAYKSGFEPPGDIEFEDYTQPMKRTVSDNSLSNSRGEGKPDLKFGGKSKGKLWPFIKKNKLMSLLTSPHQPPPPPPASASPSAVPNGPQSPKQQKEPLSHRFNEFMTSKPKIHCFRSLKRGLSLKLGATPEDFSNLPPEQRRKKLQQKVDELNKEIQKEMDQRDAITKMKDVYLKNPQMGDPASLDHKLAEVSQNIEKLRVETQKFEAWLAEVEGRLPARSEQARRQSGLYDSQNPPTVNNCAQDRESPDGSYTEEQSQESEMKVLATDFDDEFDDEEPLPAIGTCKALYTFEGQNEGTISVVEGETLYVIEEDKGDGWTRIRRNEDEEGYVPTSYVEVCLDKNAKDS
partner: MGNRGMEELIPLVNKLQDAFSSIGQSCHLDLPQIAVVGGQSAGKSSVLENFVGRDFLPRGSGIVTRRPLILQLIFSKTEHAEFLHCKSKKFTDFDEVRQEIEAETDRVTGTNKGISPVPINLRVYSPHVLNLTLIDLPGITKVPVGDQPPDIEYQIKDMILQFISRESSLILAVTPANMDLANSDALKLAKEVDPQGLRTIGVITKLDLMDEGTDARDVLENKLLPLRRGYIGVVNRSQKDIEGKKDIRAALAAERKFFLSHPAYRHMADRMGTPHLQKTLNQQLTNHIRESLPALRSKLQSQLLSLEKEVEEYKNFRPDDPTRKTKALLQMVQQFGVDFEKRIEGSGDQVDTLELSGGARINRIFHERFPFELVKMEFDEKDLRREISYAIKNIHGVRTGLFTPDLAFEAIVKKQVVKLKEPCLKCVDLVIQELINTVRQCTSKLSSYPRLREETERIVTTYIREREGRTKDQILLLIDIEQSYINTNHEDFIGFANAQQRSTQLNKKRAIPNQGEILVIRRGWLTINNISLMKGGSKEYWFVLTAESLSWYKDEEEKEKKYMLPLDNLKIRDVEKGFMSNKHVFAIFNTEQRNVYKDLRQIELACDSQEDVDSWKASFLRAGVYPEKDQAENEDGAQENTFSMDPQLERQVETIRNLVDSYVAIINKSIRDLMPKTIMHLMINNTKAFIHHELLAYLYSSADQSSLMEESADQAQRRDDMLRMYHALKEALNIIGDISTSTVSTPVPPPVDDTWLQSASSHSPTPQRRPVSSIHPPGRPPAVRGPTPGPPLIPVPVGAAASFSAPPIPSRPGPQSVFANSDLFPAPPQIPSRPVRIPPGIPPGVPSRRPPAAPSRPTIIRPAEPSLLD
B2: Formin-binding protein 1 (Homo sapiens), Q96RU3 (parent)
chain: B1 chain
partner: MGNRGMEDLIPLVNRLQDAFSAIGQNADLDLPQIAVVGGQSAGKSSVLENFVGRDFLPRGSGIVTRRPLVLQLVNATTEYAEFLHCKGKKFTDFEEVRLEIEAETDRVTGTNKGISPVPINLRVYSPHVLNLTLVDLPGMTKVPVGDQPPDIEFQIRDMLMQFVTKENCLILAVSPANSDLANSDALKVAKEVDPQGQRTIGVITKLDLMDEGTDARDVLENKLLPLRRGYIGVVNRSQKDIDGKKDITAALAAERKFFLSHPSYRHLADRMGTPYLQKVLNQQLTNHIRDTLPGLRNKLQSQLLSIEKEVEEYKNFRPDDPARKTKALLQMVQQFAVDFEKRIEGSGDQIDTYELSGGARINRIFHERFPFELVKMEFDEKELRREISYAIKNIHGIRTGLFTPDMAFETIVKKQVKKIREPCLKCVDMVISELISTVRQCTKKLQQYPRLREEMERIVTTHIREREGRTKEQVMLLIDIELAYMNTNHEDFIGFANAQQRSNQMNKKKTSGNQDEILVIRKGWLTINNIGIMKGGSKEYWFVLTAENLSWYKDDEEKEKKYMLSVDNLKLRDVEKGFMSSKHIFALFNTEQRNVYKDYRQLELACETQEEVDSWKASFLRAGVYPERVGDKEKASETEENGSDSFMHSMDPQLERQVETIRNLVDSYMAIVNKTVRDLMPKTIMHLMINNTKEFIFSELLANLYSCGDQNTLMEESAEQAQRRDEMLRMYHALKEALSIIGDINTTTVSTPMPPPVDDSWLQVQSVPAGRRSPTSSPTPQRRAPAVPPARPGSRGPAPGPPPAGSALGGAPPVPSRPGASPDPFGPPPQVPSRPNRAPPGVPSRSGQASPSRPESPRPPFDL
B3: Formin-binding protein 1 (Homo sapiens), Q96RU3 (parent)
chain: B1 chain
partner: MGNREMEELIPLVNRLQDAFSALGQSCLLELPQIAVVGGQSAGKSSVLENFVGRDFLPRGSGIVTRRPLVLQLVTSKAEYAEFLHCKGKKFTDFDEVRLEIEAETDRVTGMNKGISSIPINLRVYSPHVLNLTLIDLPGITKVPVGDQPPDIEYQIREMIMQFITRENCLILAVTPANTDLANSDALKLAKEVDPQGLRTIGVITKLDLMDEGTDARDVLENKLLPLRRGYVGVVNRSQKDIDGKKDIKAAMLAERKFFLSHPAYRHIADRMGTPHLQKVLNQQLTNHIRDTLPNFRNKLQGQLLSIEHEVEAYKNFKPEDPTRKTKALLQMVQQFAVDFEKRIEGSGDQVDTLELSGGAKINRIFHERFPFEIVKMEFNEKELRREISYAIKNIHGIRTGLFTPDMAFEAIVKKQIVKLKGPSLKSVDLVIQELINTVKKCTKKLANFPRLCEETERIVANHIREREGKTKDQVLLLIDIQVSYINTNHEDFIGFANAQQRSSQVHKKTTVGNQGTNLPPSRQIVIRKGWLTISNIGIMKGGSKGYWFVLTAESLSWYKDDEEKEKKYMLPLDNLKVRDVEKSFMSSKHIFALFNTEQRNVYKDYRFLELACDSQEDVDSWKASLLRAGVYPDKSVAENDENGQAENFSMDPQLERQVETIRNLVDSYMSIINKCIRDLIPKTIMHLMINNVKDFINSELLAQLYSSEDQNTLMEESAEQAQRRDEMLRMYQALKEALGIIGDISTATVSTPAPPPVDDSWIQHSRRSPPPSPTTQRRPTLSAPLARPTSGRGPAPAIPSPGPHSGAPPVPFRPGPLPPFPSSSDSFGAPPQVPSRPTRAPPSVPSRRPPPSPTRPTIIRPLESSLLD

Variants of: B1
Conditions: with dyn2_human DNM2, P50570

Row | Variant | effect of a mutation on the interaction
1 | P602L | decreasing interaction

Variants of: B2
Conditions: with dyn1_human DNM1, Q05193

Row | Variant | effect of a mutation on the interaction
2 | P602L | decreasing interaction

Variants of: B3
Conditions: with dyn3_human DNM3, Q9UQ16

Row | Variant | effect of a mutation on the interaction
3 | P602L | decreasing interaction
